Our source for the binding result and stoichiometry N values is publication PMC6167435, “Genetic Removal of the CH1 Exon Enables the Production of Heavy Chain-Only IgG in Mice” (Frontiers in Immunology, 2018).

B1: 3A-1 (VHH)
VHH: EVKLVESGGDLVKPGGSLKLSCAASGFTFSSYGMSWIRQTPDKRLEWVATISSGGSYTYYPDSVKGRFTISRDNAKNTLYLQMSSLKSEDTAMYYCARRGRYDDTMDYWGQGTTVTVSS
B2: 3A-3 (VHH)
VHH: EVKLVESGGDLVKPGGSLKLSCAASGFTFSSYGMSWIRQTPDKRLEWVATISSGGSYTYYPDSVKGRFTISRDNAENTLYLQMSSLKSEDTAMYYCARRGRYDDTMDYWGQGTSLTVSS
B3: 3A-2 (VHH)
VHH: EVKLVESGGDLVKPGGSLKLSCAASGFTFSSYGMSWIRQTPDKRLEWVATISSGGSYTYYPDSVKGRFTISRDNAKNTLYLQMSSLKSEDTAMYYCARRGRYDDTMDYWGQGTTLTVSS
B4: 3A-9 (VHH)
VHH: EVKLVESGGDLVKPGGSLKLSCAASGFTFSSYGMSWIRQTPDKRLEWVATISSGGSYTYYPDSVKGRFTISRDNAKNTLYLQMGSLKSEDTAMYYCARRGRYDDTMDYWGQGTSLTVSS
B5: 3A-6 (VHH)
VHH: EVKLVESGGDLVKPGGSLKLSCVASGFTFSSYGMSWIRQTPDKRLEWVATISSGGSYTYYPDSVKGRFTISRDNAKNTLYLQMSSLKSEDTAMYYCARRGRYDDTMDYWGQGTTVTVSS
B6: 3A-31 (VHH)
VHH: EVKLVESGGDLVKPGGSLKLSCAASGFTFSSYGMSWVRQTPDKRLEWVATISSGGSYTYYPDSVKGRFTISRDNAKSTLYLQMSSLKSEDTAMYYCARRGKYDDTMDYWGQGTTLTVSS
B7: 3A-20 (VHH)
VHH: EVQLEESGGDLVKPGGSLKLSCAASGFTFSSYGMSWIRQTPDKRLEWVATISSGGSYTYYPDSVKGRFTISRDNAKNTLYLQMSSLKSEDTAMYYCARRGRYDDTMDYWGQGTTVTVSS

In the first assay the target is ovalbumin (Gallus gallus (chicken), , UniProt P01012).
Chain of ovalbumin (P01012 whole entry): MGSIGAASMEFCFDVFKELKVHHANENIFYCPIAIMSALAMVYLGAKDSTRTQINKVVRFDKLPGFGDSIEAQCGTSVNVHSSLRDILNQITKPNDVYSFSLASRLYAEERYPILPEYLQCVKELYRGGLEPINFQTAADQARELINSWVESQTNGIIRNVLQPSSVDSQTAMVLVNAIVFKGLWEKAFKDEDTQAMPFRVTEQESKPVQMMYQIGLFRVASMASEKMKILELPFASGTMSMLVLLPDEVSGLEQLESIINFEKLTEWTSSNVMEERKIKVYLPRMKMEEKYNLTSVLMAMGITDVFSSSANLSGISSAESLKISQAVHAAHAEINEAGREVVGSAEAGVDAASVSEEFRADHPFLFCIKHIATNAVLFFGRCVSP
Assay: not given
On to B1, for which the binding result is “binds”.
Still for that read-out and setting: under B2 stands “binds”.
On the same count and under the same terms, under B3 stands “binds”; under B4, “binds”.
Still for that read-out and setting: under B5 stands “binds”; under B6, “binds”; under B7, “binds”.

Another assay deals with IgG1 heavy chain of HG1 mice (γ1 CH1 exon deleted) (mouse (endogenous in serum of HG1 mice)). In words: SDS-PAGE under non-reducing conditions with Western blotting; serum of HG1 and WT mice; detected with HRP-conjugated goat anti-mouse IgG1 heavy chain; association judged from molecular weights (covalent association). (Immunoblotting shows a protein as a band on a membrane.)
By stoichiometry N is commonly meant a count of units in the complex or per binding partner. In turn, “IgG1 heavy chain of HG1 mice (γ1 CH1 exon deleted)” returned a stoichiometry N of 2.
